The target in assay [1] is HEV ORF3 and GFP1 fusion protein (genotype 1) (hepatitis E virus genotype 1 (W2-1 strain)). Description: co-IP; Matchmaker Chemiluminescent Co-IP System; 293FT cells co-transfected with pAcGFP1-ORF3 and pProLabel-prey, lysed at 48 h; precipitated with anti-AcGFP (GFP1) polyclonal antibody; ProLabel chemiluminescence (RLU) read on the beads.
The target is the same in assay [2]. In words: co-IP; Matchmaker Chemiluminescent Co-IP System; 293FT cells co-transfected with pAcGFP1-ORF3 and pProLabel-prey, lysed at 48 h; precipitated with anti-HEV ORF3 polyclonal antibody; ProLabel chemiluminescence (RLU) read on the beads; three independent tests.

B1: Hemopexin, ProLabel fusion (natural protein)
chain: TPLPPTSAHGNVAEGETKPDPDVTERCSDGWSFDATTLDDNGTMLFFKGEFVWKSHKWDRELISERWKNFPSPVDAAFRQGHNSVFLIKGDKVWVYPPEKKEKGYPKLLQDEFPGIPSPLDAAVECHRGECQAEGVLFFQGDREWFWDLATGTMKERSWPAVGNCSSALRWLGRYYCFQGNQFLRFDPVRGEVPPRYPRDVRDYFMPCPGRGHGHRNGTGHGNSTHHGPEYMRCSPHLVLSALTSDNHGATYAFSGTHYWRLDTSRDGWHSWPIAHQWPQGPSAVDAAFSWEEKLYLVQGTQVYVFLTKGGYTLVSGYPKRLEKEVGTPHGIILDSVDAAFICPGSSRLHIMAGRRLWWLDLKSGAQATWTELPWPHEKVDGALCMEKSLGPNSCSANGPGLYLIHGPNLYCYSDVEKLNAAKALPQPQNVTSLLGCTH
With B1, the chemiluminescent intensity in assay [1] came to 614 RLU; in assay [2] it was 1140 RLU.
